Measured values: patent publication US20090208995

Tests used:
[1] = tested on: Pro-CE derived from a horseshoe crab hemocyte extract (DS-10AII fraction)
[2] = tested on: T1, recombinant Pro-CE (pro-clotting enzyme, His-Tag at the C-terminus, expressed in expresSF+ insect cells)
T1 sequence: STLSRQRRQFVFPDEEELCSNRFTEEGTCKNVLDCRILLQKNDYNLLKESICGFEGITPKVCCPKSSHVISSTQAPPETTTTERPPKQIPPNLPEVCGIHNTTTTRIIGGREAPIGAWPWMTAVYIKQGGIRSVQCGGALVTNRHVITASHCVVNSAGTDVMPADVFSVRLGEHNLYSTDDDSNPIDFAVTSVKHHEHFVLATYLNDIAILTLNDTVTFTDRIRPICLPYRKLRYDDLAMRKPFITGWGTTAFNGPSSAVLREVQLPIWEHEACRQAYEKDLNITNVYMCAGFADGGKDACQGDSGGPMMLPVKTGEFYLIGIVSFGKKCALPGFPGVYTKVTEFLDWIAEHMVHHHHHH

[3] = biological target: T2, recombinant Pro-CE (pro-clotting enzyme, His-Tag at the C-terminus, expressed in expresSF+ insect cells)
T2 chain: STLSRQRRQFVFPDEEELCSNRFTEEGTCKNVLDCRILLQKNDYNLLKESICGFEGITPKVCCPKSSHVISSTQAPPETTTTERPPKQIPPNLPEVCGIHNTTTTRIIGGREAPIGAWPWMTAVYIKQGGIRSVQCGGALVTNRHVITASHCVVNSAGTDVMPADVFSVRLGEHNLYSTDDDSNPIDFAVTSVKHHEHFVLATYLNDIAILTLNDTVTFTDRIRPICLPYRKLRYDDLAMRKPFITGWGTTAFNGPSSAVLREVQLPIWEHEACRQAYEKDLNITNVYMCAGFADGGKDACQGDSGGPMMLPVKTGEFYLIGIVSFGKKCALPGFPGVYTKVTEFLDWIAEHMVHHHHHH

[4] = biological target: T3, recombinant factor B (His-Tag at the C-terminus; culture supernatant, MOI = 0.1, 96 h)
T3 chain: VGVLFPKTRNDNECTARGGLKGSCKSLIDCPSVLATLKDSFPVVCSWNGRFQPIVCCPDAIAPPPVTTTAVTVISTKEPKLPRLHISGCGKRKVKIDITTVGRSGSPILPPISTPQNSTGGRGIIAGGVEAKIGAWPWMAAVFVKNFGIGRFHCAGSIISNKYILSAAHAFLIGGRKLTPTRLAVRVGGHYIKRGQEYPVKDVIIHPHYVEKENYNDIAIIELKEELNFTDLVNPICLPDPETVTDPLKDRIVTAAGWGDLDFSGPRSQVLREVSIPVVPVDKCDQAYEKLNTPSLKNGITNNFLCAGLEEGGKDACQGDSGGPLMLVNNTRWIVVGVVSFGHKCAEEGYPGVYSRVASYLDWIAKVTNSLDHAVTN

## Factor G derived from a horseshoe crab hemocyte extract (DS-3GII fraction)
[1]
  Reactivity, Average; CSBG 0 ng/mL (A 405 to 492 nm): 0.058
  Reactivity, Average; CSBG 1 ng/mL (A 405 to 492 nm): 0.437
  Reactivity, Average; CSBG 10 ng/mL (A 405 to 492 nm): 0.986
  Reactivity, endpoint assay, Boc-Leu-Gly-Arg-pNA; CSBG 0 ng/mL, first reading (A 405 to 492 nm): 0.056
  Reactivity, endpoint assay, Boc-Leu-Gly-Arg-pNA; CSBG 0 ng/mL, second reading (A 405 to 492 nm): 0.06
  Reactivity, endpoint assay, Boc-Leu-Gly-Arg-pNA; CSBG 1 ng/mL, first reading (A 405 to 492 nm): 0.44
  Reactivity, endpoint assay, Boc-Leu-Gly-Arg-pNA; CSBG 1 ng/mL, second reading (A 405 to 492 nm): 0.434
  Reactivity, endpoint assay, Boc-Leu-Gly-Arg-pNA; CSBG 10 ng/mL, first reading (A 405 to 492 nm): 0.969
  Reactivity, endpoint assay, Boc-Leu-Gly-Arg-pNA; CSBG 10 ng/mL, second reading (A 405 to 492 nm): 1
  Reactivity, ΔA; CSBG 1 ng/mL (A 405 to 492 nm): 0.379
  Reactivity, ΔA; CSBG 10 ng/mL (A 405 to 492 nm): 0.928
[2]
  Reactivity, Average; CSBG 0 ng/mL (A 405 to 492 nm): 0.05
  Reactivity, Average; CSBG 1 ng/mL (A 405 to 492 nm): 0.484
  Reactivity, Average; CSBG 10 ng/mL (A 405 to 492 nm): 0.987
  Reactivity, endpoint assay, Boc-Leu-Gly-Arg-pNA; CSBG 0 ng/mL, first reading (A 405 to 492 nm): 0.051
  Reactivity, endpoint assay, Boc-Leu-Gly-Arg-pNA; CSBG 0 ng/mL, second reading (A 405 to 492 nm): 0.049
  Reactivity, endpoint assay, Boc-Leu-Gly-Arg-pNA; CSBG 1 ng/mL, first reading (A 405 to 492 nm): 0.48
  Reactivity, endpoint assay, Boc-Leu-Gly-Arg-pNA; CSBG 1 ng/mL, second reading (A 405 to 492 nm): 0.487
  Reactivity, endpoint assay, Boc-Leu-Gly-Arg-pNA; CSBG 10 ng/mL, first reading (A 405 to 492 nm): 0.988
  Reactivity, endpoint assay, Boc-Leu-Gly-Arg-pNA; CSBG 10 ng/mL, second reading (A 405 to 492 nm): 0.986
  Reactivity, ΔA; CSBG 1 ng/mL (A 405 to 492 nm): 0.434
  Reactivity, ΔA; CSBG 10 ng/mL (A 405 to 492 nm): 0.937
  enzymatic activity with DS-3GII fraction and BG: the recombinant Pro-CE exhibited an enzymatic activity almost equivalent to that of Pro-CE derived from a horseshoe crab hemocyte extract

## recombinant factor G (culture supernatant; alpha-subunit:beta-subunit = 2:1)
[2]
  Reactivity, Average; CSBG 0 ng/mL: 0.078
  Reactivity, Average; CSBG 1 ng/mL: 0.139
  Reactivity, Average; CSBG 10 ng/mL: 0.532
  Reactivity, endpoint assay, Boc-Leu-Gly-Arg-pNA; CSBG 0 ng/mL, first reading: 0.079
  Reactivity, endpoint assay, Boc-Leu-Gly-Arg-pNA; CSBG 0 ng/mL, second reading: 0.076
  Reactivity, endpoint assay, Boc-Leu-Gly-Arg-pNA; CSBG 1 ng/mL, first reading: 0.14
  Reactivity, endpoint assay, Boc-Leu-Gly-Arg-pNA; CSBG 1 ng/mL, second reading: 0.138
  Reactivity, endpoint assay, Boc-Leu-Gly-Arg-pNA; CSBG 10 ng/mL, first reading: 0.543
  Reactivity, endpoint assay, Boc-Leu-Gly-Arg-pNA; CSBG 10 ng/mL, second reading: 0.52
  Reactivity, ΔA; CSBG 1 ng/mL: 0.061
  Reactivity, ΔA; CSBG 10 ng/mL: 0.454
  hydrolysis of Boc-Leu-Gly-Arg-pNA in the complete reconstitution system with BG: the same enzymatic activity as that of native factor LAL was found to be expressed

B1: recombinant factor B (His-Tag at the C-terminus; culture supernatant, MOI = 0.1, 96 h) (protein)
chain: VGVLFPKTRNDNECTARGGLKGSCKSLIDCPSVLATLKDSFPVVCSWNGRFQPIVCCPDAIAPPPVTTTAVTVISTKEPKLPRLHISGCGKRKVKIDITTVGRSGSPILPPISTPQNSTGGRGIIAGGVEAKIGAWPWMAAVFVKNFGIGRFHCAGSIISNKYILSAAHAFLIGGRKLTPTRLAVRVGGHYIKRGQEYPVKDVIIHPHYVEKENYNDIAIIELKEELNFTDLVNPICLPDPETVTDPLKDRIVTAAGWGDLDFSGPRSQVLREVSIPVVPVDKCDQAYEKLNTPSLKNGITNNFLCAGLEEGGKDACQGDSGGPLMLVNNTRWIVVGVVSFGHKCAEEGYPGVYSRVASYLDWIAKVTNSLDHAVTN
[3]
  Reactivity, Av.; sample (A) PCE + FB + FC (factor C also present), Et 0 ng/mL (A405 to 492 nm): 0.023
  Reactivity, Av.; sample (A) PCE + FB + FC (factor C also present), Et 100 ng/mL (A405 to 492 nm): 0.649
  Reactivity, Av.; sample (B) PCE + FB, Et 0 ng/mL (A405 to 492 nm): 0.023
  Reactivity, Av.; sample (B) PCE + FB, Et 100 ng/mL (A405 to 492 nm): 0.023
  Reactivity; sample (A) PCE + FB + FC (factor C also present), Et 0 ng/mL, first reading (A405 to 492 nm): 0.024
  Reactivity; sample (A) PCE + FB + FC (factor C also present), Et 0 ng/mL, second reading (A405 to 492 nm): 0.022
  Reactivity; sample (A) PCE + FB + FC (factor C also present), Et 100 ng/mL, first reading (A405 to 492 nm): 0.652
  Reactivity; sample (A) PCE + FB + FC (factor C also present), Et 100 ng/mL, second reading (A405 to 492 nm): 0.645
  Reactivity; sample (B) PCE + FB, Et 0 ng/mL, first reading (A405 to 492 nm): 0.023
  Reactivity; sample (B) PCE + FB, Et 0 ng/mL, second reading (A405 to 492 nm): 0.022
  Reactivity; sample (B) PCE + FB, Et 100 ng/mL, first reading (A405 to 492 nm): 0.022
  Reactivity; sample (B) PCE + FB, Et 100 ng/mL, second reading (A405 to 492 nm): 0.023
  hydrolysis of Boc-Leu-Gly-Arg-pNA in the complete reconstitution system with Et (factor C also present): cascade reaction of Et proceeds in a concentration-dependent manner through employment of recombinant factors C and B and recombinant Pro-CE in combination
  hydrolysis of Boc-Leu-Gly-Arg-pNA in the presence of Et at high concentration, without factor C: in the samples containing recombinant Pro-CE and/or recombinant factor B, activation attributed to high concentration Et was not observed

B2: recombinant factor C (derived from Tachypleus rotundicauda), commercial element of PyroGene (product of Cambrex) (protein)
chain: KGVDLGLCDETRFECKCGDPGYVFNIPVKQCTYFYRWRPYCKPCDDLEAKDICPKYKRCQECKAGLDSCVTCPPNKYGTWCSGECQCKNGGICDQRTGACACRDRYEGVHCEILKGCPLLPSDSQVQEVRNPPDNPQTIDYSCSPGFKLKGMARISCLPNGQWSNFPPKCIRECAMVSSPEHGKVNALSGDMIEGATLRFSCDSPYYLIGQETLTCQGNGQWNGQIPQCKNLVFCPDLDPVNHAEHKVKIGVEQKYGQFPQGTEVTYTCSGNYFLMGFDTLKCNPDGSWSGSQPSCVKVADREVDCDSKAVDFLDDVGEPVRIHCPAGCSLTAGTVWGTAIYHELSSVCRAAIHAGKLPNSGGAVHVVNNGPYSDFLGSDLNGIKSEELKSLARSFRFDYVRSSTAGKSGCPDGWFEVDENCVYVTSKQRAWERAQGVCTNMAARLAVLDKDVIPNSLTETLRGKGLTTTWIGLHRLDAEKPFIWELMDRSNVVLNDNLTFWASGEPGNETNCVYMDIQDQLQSVWKTKSCFQPSSFACMMDLSDRNKAKCDDPGSLENGHATLHGQSIDGFYAGSSIRYSCEVLHYLSGTETVTCTTNGTWSAPKPRCIKVITCQNPPVPSYGSVEIKPPSRTNSISRVGSPFLRLPRLPLPLARAAKPPPKPRSSQPSTVDLASKVKLPEGHYRVGSRAIYTCESRYYELLGSQGRRCDSNGNWSGRPASCIPVCGRSDSPRSPFIWNGNSTEIGQWPWQAGISRWLADHNMWFLQCGGSLLNEKWIVTAAHCVTYSATAEIIDPNQFKMYLGKYYRDDSRDDDYVQVREALEIHVNPNYDPGNLNFDIALIQLKTPVTLTTRVQPICLPTDITTREHLKEGTLAVVTGWGLNENNTYSETIQQAVLPVVAASTCEEGYKEADLPLTVTENMFCAGYKKGRYDACSGDSGGPLVFADDSRTERRWVLEGIVSWGSPSGCGKANQYGGFTKVNVFLSWIRQFI
[3]
  Reactivity, Av.; sample (C) PCE + FC, Et 0 ng/mL (A405 to 492 nm): 0.02
  Reactivity, Av.; sample (C) PCE + FC, Et 100 ng/mL (A405 to 492 nm): 0.03
  Reactivity; sample (C) PCE + FC, Et 0 ng/mL, first reading (A405 to 492 nm): 0.02
  Reactivity; sample (C) PCE + FC, Et 0 ng/mL, second reading (A405 to 492 nm): 0.02
  Reactivity; sample (C) PCE + FC, Et 100 ng/mL, first reading (A405 to 492 nm): 0.029
  Reactivity; sample (C) PCE + FC, Et 100 ng/mL, second reading (A405 to 492 nm): 0.03
[4]
  Reactivity, Av.; sample (D) FB + FC, Et 0 ng/mL (A405 to 492 nm): 0.025
  Reactivity, Av.; sample (D) FB + FC, Et 100 ng/mL (A405 to 492 nm): 0.033
  Reactivity; sample (D) FB + FC, Et 0 ng/mL, first reading (A405 to 492 nm): 0.024
  Reactivity; sample (D) FB + FC, Et 0 ng/mL, second reading (A405 to 492 nm): 0.025
  Reactivity; sample (D) FB + FC, Et 100 ng/mL, first reading (A405 to 492 nm): 0.032
  Reactivity; sample (D) FB + FC, Et 100 ng/mL, second reading (A405 to 492 nm): 0.034
  hydrolysis of Boc-Leu-Gly-Arg-pNA in the complete reconstitution system with Et (Pro-CE also present): cascade reaction of Et proceeds in a concentration-dependent manner through employment of recombinant factors C and B and recombinant Pro-CE in combination
